# In publication PMC9652331, “Cryo-EM structures of human m6A writer complexes”:
# Target: HAKAI;WTAP;VIRMA;ZC3H13 (1106-1668);METTL3;METTL14 (Homo sapiens;Homo sapiens;Homo …, UniProt Q75N03;Q15007;Q69YN4;Q5T200;Q86U44;Q9HCE5 …, |||||)
# Experiment: s4U UV crosslinking MS; sites METTL3 F321; VIRMA P140, E1597, F1706; EMSA: 5 nM FAM-RNA, 20 mM HEPES pH 7.5, 100 mM KCl, 10% glycerol, 1 mM DTT, 25 C, 20 min; 8% native PAGE in 1x TBE at 4 C; Kd from loss of free RNA, Hill fit, n
# Conditions: protein: recombinant;recombinant;recombinant;recombinant;recombinant;recombinant, tags: untagged;N-6xHis;N-6xHis;N-Twin-Strep;N-GST-TEV, removed;N-6xHis-TEV
binder,measurement,value
"s4U-ACTB-1 RNA (ssRNA, 4-thiouridine (s4U); positions not given) RNA: GGCCCCUCCAUCGUCCACCGCAAAUGCUUCUAGGCGGACUAUGACUUAGUUGCGUUACACCCUUUCUUGACAAAACCUAACUUGCACAGAAAACA",binding result,binds
